Results published in the supplement of paper PMC10065799, “High-throughput profiling of sequence recognition by tyrosine kinases and SH2 domains using bacterial peptide display” (eLife, 2023).

Key:
c-Src SH2 = test: SH2 binding enrichment of the phosphorylated peptide, bacterial display (enrichment ratio); higher = better substrate or ligand; peptides without Tyr show the background
Grb2 SH2 = Grb2 SH2 (UniProt P62993); test: as above
SHP2-C SH2 = test: as above
c-Abl (mouse) = test: phosphorylation enrichment, bacterial display (enrichment ratio); higher = better substrate or ligand; peptides without Tyr show the background
AncSZ = test: as above
EPHB1 = EPHB1 (UniProt P54762); test: as above
Hck = Hck (UniProt P08631); test: as above
Jak2 = Jak2 (UniProt O60674); test: as above
Fer (mouse) = test: as above
MERTK = MERTK (UniProt Q12866); test: as above
FGFR1 = FGFR1 (UniProt P11362); test: as above
Fyn = Fyn (UniProt P06241); test: as above
EPHB2 = EPHB2 (UniProt P29323); test: as above
c-Src = test: as above
FGFR3 = FGFR3 (UniProt P22607); test: as above
Fes = Fes (UniProt P07332); test: as above
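Throughout, for SH2 binding enrichment of the phosphorylated peptide, bacterial display: peptide library displayed on the E. coli surface as eCPX fusions, selected cells deep-sequenced, score is each peptide's frequency after selection divided by its frequency in the input.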
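Throughout, for phosphorylation enrichment, bacterial display: 11-residue human phosphosite peptides and single-mutation variants displayed on the E. coli surface, counted by deep sequencing, each peptide's frequency after selection divided by its frequency in the unselected input library; frequency after pTyr selection over input frequency; kinase dosed for 20-30% of maximal phosphorylation in three min.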

Sequence of MERTK (Q12866 whole entry, looked up): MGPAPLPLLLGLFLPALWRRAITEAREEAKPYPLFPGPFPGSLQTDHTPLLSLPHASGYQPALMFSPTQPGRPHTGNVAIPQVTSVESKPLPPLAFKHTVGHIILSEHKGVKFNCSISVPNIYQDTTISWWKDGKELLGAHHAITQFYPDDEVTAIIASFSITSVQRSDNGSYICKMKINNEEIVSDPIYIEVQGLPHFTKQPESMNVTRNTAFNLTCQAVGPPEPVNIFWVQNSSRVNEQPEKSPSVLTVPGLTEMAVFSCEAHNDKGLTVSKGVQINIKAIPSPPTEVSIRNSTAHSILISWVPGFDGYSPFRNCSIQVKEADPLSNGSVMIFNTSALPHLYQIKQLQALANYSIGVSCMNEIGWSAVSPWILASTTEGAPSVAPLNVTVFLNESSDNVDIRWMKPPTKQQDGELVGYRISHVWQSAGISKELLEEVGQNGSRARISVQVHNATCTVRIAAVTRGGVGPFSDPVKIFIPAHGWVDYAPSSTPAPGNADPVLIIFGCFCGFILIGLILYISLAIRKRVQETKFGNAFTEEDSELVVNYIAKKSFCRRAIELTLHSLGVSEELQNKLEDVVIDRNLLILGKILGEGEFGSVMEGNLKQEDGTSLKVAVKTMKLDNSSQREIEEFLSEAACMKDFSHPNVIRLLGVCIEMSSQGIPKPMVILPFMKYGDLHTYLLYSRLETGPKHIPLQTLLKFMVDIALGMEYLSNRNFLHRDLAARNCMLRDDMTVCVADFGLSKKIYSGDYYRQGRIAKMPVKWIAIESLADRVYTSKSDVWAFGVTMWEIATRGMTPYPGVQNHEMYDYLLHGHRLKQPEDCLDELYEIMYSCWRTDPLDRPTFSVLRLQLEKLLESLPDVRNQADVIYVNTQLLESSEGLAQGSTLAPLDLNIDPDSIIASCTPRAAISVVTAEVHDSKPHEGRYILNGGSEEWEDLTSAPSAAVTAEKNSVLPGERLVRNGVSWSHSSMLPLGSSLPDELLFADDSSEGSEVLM
Sequence of EPHB1 (P54762 whole entry, looked up): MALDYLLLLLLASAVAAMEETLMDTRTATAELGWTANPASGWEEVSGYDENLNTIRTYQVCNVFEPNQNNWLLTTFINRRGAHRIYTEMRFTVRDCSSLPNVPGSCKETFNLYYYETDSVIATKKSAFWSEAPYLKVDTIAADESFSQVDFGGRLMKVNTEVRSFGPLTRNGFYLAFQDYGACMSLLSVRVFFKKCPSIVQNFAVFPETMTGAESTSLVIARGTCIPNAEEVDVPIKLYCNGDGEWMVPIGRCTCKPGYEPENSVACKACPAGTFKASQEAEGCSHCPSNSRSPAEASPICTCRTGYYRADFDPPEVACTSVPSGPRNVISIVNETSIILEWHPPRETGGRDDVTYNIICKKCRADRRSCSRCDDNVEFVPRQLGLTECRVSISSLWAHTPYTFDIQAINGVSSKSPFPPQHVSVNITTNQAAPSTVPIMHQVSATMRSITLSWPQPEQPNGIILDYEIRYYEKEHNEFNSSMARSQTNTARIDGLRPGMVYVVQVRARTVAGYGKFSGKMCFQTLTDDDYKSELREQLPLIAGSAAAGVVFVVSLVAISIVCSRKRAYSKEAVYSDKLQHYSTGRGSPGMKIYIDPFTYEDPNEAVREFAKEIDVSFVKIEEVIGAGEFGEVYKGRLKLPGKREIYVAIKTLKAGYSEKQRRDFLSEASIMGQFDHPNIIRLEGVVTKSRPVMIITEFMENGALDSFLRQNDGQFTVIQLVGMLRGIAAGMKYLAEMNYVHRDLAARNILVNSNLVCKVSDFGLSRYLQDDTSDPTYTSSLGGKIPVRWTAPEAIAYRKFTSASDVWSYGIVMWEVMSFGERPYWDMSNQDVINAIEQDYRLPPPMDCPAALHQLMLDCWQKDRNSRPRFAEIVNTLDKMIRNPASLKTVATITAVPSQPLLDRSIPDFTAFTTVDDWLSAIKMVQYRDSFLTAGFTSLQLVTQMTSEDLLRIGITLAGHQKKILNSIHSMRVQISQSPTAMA
Sequence of Grb2 SH2 (P62993 whole entry, looked up): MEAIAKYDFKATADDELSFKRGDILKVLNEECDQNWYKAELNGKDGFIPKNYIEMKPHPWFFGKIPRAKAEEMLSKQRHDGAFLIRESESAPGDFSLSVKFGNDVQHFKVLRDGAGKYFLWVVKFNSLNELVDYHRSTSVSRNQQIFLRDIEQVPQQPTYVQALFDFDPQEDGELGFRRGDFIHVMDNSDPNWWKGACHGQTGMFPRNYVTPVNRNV
Sequence of FGFR1 (P11362 whole entry, looked up): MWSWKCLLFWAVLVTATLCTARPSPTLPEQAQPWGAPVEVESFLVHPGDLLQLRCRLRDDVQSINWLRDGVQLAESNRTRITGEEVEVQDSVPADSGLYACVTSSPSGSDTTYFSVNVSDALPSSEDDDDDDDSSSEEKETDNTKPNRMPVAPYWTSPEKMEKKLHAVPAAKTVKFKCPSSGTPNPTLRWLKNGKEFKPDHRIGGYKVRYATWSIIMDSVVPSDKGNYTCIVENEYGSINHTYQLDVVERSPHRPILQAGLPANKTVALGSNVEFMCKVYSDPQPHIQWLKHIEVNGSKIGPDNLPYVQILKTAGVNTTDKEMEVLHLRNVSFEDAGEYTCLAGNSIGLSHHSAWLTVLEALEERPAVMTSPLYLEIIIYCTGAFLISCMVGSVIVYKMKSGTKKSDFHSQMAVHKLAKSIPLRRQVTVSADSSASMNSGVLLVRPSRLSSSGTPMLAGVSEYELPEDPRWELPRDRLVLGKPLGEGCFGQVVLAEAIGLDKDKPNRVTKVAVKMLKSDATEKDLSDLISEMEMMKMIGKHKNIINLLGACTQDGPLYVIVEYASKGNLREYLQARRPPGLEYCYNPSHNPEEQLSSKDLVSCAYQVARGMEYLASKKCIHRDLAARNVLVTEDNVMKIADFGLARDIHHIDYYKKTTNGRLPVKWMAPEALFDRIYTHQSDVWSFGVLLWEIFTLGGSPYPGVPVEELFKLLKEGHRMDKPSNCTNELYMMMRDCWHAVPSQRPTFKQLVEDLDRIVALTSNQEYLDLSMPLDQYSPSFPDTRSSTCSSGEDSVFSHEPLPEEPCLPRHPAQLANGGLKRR
Sequence of EPHB2 (P29323 whole entry, looked up): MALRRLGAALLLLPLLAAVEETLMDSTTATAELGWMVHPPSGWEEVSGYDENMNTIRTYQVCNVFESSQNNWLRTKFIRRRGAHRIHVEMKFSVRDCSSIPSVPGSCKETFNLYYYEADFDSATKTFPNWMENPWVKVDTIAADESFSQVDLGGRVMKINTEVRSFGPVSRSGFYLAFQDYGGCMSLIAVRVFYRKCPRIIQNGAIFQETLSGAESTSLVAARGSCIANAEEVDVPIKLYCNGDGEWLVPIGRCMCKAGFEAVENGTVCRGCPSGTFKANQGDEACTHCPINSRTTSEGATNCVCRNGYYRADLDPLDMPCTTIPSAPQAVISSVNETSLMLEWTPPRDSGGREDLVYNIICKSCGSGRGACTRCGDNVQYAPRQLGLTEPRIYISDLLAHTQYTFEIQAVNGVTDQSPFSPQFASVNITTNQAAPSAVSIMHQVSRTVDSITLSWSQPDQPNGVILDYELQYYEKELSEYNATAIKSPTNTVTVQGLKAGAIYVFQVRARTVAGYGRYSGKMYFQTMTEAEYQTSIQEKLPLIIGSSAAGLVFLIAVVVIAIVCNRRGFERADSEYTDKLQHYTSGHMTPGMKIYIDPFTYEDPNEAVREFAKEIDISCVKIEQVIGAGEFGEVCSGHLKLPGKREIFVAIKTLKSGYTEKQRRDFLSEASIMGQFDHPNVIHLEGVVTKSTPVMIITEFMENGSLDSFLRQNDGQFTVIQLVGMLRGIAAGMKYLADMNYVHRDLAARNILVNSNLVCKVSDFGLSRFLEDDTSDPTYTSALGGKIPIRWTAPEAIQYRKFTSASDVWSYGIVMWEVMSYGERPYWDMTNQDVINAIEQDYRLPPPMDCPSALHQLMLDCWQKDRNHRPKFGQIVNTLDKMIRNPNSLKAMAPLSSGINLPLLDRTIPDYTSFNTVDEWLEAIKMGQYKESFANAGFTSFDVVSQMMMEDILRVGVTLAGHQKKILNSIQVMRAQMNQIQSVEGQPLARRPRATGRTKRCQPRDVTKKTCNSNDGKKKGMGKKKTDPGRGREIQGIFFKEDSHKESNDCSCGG
Sequence of Fes (P07332 whole entry, looked up, the tested form may be a part): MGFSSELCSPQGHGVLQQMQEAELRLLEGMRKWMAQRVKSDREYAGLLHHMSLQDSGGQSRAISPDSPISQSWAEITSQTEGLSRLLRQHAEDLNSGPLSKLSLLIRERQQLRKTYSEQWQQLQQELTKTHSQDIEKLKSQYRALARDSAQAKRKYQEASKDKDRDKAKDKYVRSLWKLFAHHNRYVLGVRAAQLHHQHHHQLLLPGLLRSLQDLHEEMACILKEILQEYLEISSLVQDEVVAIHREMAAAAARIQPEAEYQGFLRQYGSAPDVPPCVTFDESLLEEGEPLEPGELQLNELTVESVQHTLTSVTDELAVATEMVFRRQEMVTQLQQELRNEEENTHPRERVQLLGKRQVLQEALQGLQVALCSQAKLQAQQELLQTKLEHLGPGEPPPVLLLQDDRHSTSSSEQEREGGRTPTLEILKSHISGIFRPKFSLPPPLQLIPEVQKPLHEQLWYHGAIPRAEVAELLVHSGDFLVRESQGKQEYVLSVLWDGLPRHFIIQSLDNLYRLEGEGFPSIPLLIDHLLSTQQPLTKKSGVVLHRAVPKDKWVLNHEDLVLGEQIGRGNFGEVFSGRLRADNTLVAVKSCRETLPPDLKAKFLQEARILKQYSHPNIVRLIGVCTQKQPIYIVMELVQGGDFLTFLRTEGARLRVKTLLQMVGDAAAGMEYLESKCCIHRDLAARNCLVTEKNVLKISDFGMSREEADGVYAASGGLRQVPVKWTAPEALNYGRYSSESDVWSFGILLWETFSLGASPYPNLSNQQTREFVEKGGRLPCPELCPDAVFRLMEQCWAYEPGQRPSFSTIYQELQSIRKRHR

Row | Sequence | SH2 binding enrichment (c-Src SH2) | SH2 binding enrichment (Grb2 SH2) | SH2 binding enrichment (SHP2-C SH2) | phosphorylation enrichment (c-Abl (mouse)) | phosphorylation enrichment (AncSZ) | phosphorylation enrichment (EPHB1) | phosphorylation enrichment (Hck) | phosphorylation enrichment (Jak2) | phosphorylation enrichment (Fer (mouse)) | phosphorylation enrichment (MERTK) | phosphorylation enrichment (FGFR1) | phosphorylation enrichment (Fyn) | phosphorylation enrichment (EPHB2) | phosphorylation enrichment (c-Src) | phosphorylation enrichment (FGFR3) | phosphorylation enrichment (Fes)
1 | TTGGFYSFGGG [KRT24_Y120_A115T_YF] | 0.418 | 0.654 | 0.618 | 0.585 | 0.623 | 0.766 | 1.57 | 0.604 | 1.55 | 8.96 | 0.46 | 4.22 | 0.442 | 1.67 | 0.446 | 0.847
2 | TTGLIYIGSHD [AASDH_Y870] | 0.624 | 1.04 | 0.69 | 0.488 | 0.726 | 0.686 | 0.46 | 0.715 | 0.424 | 0.323 | 0.445 | 0.375 | 0.565 | 0.408 | 0.79 | 0.759
3 | TTKAKYKTPIY [PLD2_Y573_T577I] | 0.793 | 0.908 | 0.775 | 0.695 | 0.823 | 0.542 | 0.789 | 0.587 | 0.459 | 0.574 | 0.46 | 0.771 | 0.46 | 0.541 | 0.596 | 0.928
4 | TTKAKYKTPTY [PLD2_Y573] | 0.541 | 0.906 | 0.848 | 0.539 | 0.473 | 0.328 | 0.443 | 0.488 | 0.336 | 0.362 | 0.287 | 0.393 | 0.313 | 0.406 | 0.32 | 0.501
5 | TTKGSYSLFVR [HCK_Y180_S183Y_YF] | 0.552 | 1.08 | 0.837 | 0.546 | 1 | 0.351 | 0.441 | 0.742 | 0.43 | 0.45 | 0.383 | 0.418 | 0.846 | 0.419 | 0.57 | 1.09
6 | TTPGPHRSIFF [MPG_Y71_Y71H_YF] | 0.681 | 0.895 | 1 | 0.542 | 0.502 | 0.41 | 0.355 | 0.449 | 0.328 | 0.376 | 0.353 | 0.398 | 0.386 | 0.303 | 0.41 | 0.514
7 | TTSQLYDAMPI [PDPK1_Y9_V12M] | 0.712 | 0.854 | 0.417 | 0.706 | 0.986 | 8.16 | 8.57 | 0.665 | 12.4 | 9.19 | 0.537 | 6.16 | 6.17 | 3.9 | 0.809 | 0.794
8 | TVDASYFGGRG [ANTXR2_Y380_YF] | 0.474 | 1.01 | 0.513 | 0.519 | 0.569 | 0.333 | 0.425 | 0.677 | 0.312 | 0.438 | 0.372 | 0.403 | 0.337 | 0.413 | 0.394 | 0.567
9 | TVFENYVADIK [RHOA_Y42_E47K] | 0.538 | 0.846 | 0.607 | 0.699 | 0.922 | 0.845 | 0.534 | 0.889 | 0.495 | 0.442 | 0.48 | 0.534 | 0.676 | 0.536 | 0.688 | 0.878
10 | TVINKYQGKLF [HGD_Y249] | 0.504 | 0.838 | 0.811 | 0.513 | 0.514 | 0.336 | 0.447 | 0.545 | 0.372 | 0.398 | 0.473 | 0.414 | 0.436 | 0.449 | 0.401 | 0.596
11 | TVQVAYFTMMM [SPATA17_Y83_YF] | 0.453 | 0.745 | 0.704 | 0.791 | 1.04 | 0.662 | 0.59 | 1.15 | 0.678 | 0.441 | 1.04 | 0.5 | 0.667 | 0.599 | 1.17 | 1.41
12 | VAFLFYKSIGP [ADGRL4_Y302_V300L_YF] | 0.301 | 0.542 | 0.457 | 1.12 | 1.38 | 0.689 | 0.488 | 1.98 | 0.55 | 0.523 | 0.739 | 0.5 | 0.664 | 0.558 | 0.837 | 1.6
13 | VAVVQYSGTGQ [COL6A1_Y878] | 0.451 | 0.767 | 0.413 | 0.592 | 0.517 | 0.479 | 0.438 | 0.576 | 0.387 | 0.412 | 0.487 | 0.357 | 0.463 | 0.451 | 0.564 | 0.71
14 | VCHELYNAIRD [PBRM1_Y54_T56A] | 1.66 | 0.893 | 0.737 | 0.693 | 0.939 | 0.543 | 2.62 | 0.79 | 0.567 | 0.43 | 0.464 | 0.672 | 0.574 | 1.33 | 0.702 | 0.933
15 | VDDEIYYFRKP [PBRM1_Y1289] | 0.521 | 0.994 | 0.57 | 7.44 | 2.94 | 0.871 | 8.76 | 1.35 | 1.29 | 4.89 | 6.49 | 8.84 | 0.84 | 6.81 | 5.81 | 1.39
16 | VDDQIYFFRKP [PBRM1_Y1289_E1287Q_YF] | 0.42 | 0.778 | 0.669 | 3.29 | 2.49 | 0.961 | 5.8 | 1.61 | 0.728 | 1.42 | 3.43 | 6.38 | 0.785 | 4.67 | 3.47 | 1.55
17 | VDEERYDIEAK [TNNI3_Y112] | 0.62 | 0.852 | 0.647 | 0.752 | 1.13 | 0.516 | 0.724 | 1.12 | 0.519 | 0.439 | 0.555 | 0.513 | 0.708 | 0.483 | 0.697 | 1.24

Row | Sequence | SH2 binding enrichment (c-Src SH2) | SH2 binding enrichment (Grb2 SH2) | SH2 binding enrichment (SHP2-C SH2) | phosphorylation enrichment (c-Abl (mouse)) | phosphorylation enrichment (AncSZ) | phosphorylation enrichment (EPHB1) | phosphorylation enrichment (Hck) | phosphorylation enrichment (Jak2) | phosphorylation enrichment (Fer (mouse)) | phosphorylation enrichment (MERTK) | phosphorylation enrichment (FGFR1) | phosphorylation enrichment (Fyn) | phosphorylation enrichment (EPHB2) | phosphorylation enrichment (c-Src) | phosphorylation enrichment (FGFR3) | phosphorylation enrichment (Fes)
18 | VDEVLYEDSST [MTHFS_Y197] | 0.489 | 0.849 | 0.635 | 0.785 | 1.53 | 0.666 | 0.646 | 1.18 | 2.56 | 0.492 | 0.742 | 0.571 | 0.671 | 0.615 | 0.886 | 1.34
19 | VDYQPYRKHKY [TEX37_Y28] | 0.918 | 0.917 | 1.11 | 0.53 | 0.627 | 0.314 | 0.484 | 0.483 | 0.425 | 0.302 | 0.423 | 0.436 | 0.356 | 0.35 | 0.416 | 0.518
20 | VEKGSYSALLA [ABCC2_Y845] | 1.45 | 0.663 | 0.686 | 0.516 | 0.648 | 0.354 | 0.537 | 0.69 | 0.45 | 0.71 | 0.401 | 0.332 | 0.392 | 0.493 | 0.456 | 0.535
21 | VERRVYAEDPF [PCCA_Y401_C398R_YF] | 0.668 | 1 | 0.777 | 0.648 | 0.722 | 0.385 | 0.412 | 0.674 | 0.39 | 0.384 | 0.429 | 0.554 | 0.499 | 0.462 | 0.481 | 0.76
22 | VFAADYFKLLG [ROR2_Y645_YF] | 0.527 | 0.983 | 0.638 | 0.498 | 0.819 | 0.52 | 0.439 | 7.31 | 0.467 | 0.394 | 7.25 | 0.417 | 0.403 | 0.562 | 4.37 | 0.643
23 | VFFGSYSRPFG [NKAP_Y104_YF] | 1.76 | 1.24 | 1.2 | 1.02 | 1.39 | 0.396 | 0.479 | 1.12 | 0.419 | 0.777 | 0.522 | 0.382 | 0.445 | 0.584 | 0.65 | 0.974
24 | VFGVSYDEYRY [CFTR_Y512_I507V] | 1.38 | 0.781 | 0.72 | 0.566 | 1.01 | 0.538 | 0.712 | 0.761 | 0.453 | 0.477 | 0.434 | 0.802 | 0.465 | 1.31 | 0.604 | 0.959
25 | VFPIDYFFPPQ [AR_Y552_L548F_YF] | 0.646 | 1.4 | 1.32 | 1.03 | 4.04 | 1.19 | 0.618 | 2.76 | 0.643 | 0.518 | 12.6 | 0.508 | 1.53 | 0.906 | 10.7 | 1.04
26 | VFSIDYFRVGG [NTRK2_Y706_T704I_YF] | 1.08 | 1.2 | 2.13 | 0.829 | 1.35 | 0.874 | 0.588 | 5.86 | 0.484 | 0.526 | 4.54 | 0.535 | 0.563 | 0.649 | 2.94 | 1.08
27 | VGNPAYRSFSN [IL4R_Y497_A492V] | 0.405 | 0.862 | 0.547 | 0.478 | 0.518 | 0.368 | 0.329 | 0.608 | 0.509 | 0.374 | 0.412 | 0.441 | 0.417 | 0.376 | 0.435 | 0.546
28 | VGTKQYMAPEV [ACVRL1_Y375_R374Q] | 0.485 | 0.832 | 0.572 | 0.674 | 0.678 | 0.466 | 0.429 | 0.738 | 0.42 | 0.469 | 0.458 | 0.432 | 0.653 | 0.598 | 0.51 | 0.754
29 | VHKKGYNKLNQ [ZNF676_Y98_E96K] | 0.962 | 1.08 | 0.885 | 0.645 | 0.408 | 0.48 | 0.43 | 0.569 | 0.439 | 0.384 | 0.494 | 0.403 | 0.374 | 0.488 | 0.516 | 0.66
30 | VHNLDYYKMTT [FGFR3_Y647_K650M] | 1.07 | 0.731 | 0.643 | 0.433 | 1.33 | 1.17 | 0.547 | 5.87 | 0.522 | 0.492 | 12.1 | 0.439 | 0.895 | 0.496 | 8.96 | 0.608
31 | VHVEVYDRPSP | 0.585 | 0.803 | 0.777 | 1.33 | 1.39 | 0.791 | 1.95 | 1.01 | 0.802 | 0.531 | 0.438 | 0.855 | 0.668 | 0.597 | 0.761 | 1.02
32 | VIERSYTSADG [DHCR7_Y382_C380R] | 1.39 | 0.852 | 0.564 | 0.565 | 0.571 | 0.388 | 0.392 | 0.578 | 0.454 | 0.395 | 0.414 | 0.496 | 0.478 | 0.419 | 0.466 | 0.692
33 | VIGRMYDFHVL [RPF2_Y109_YF] | 0.876 | 1.05 | 1.14 | 0.573 | 0.943 | 0.556 | 0.6 | 0.804 | 8.04 | 3.11 | 0.472 | 0.469 | 0.659 | 0.598 | 0.607 | 0.902
